Results taken from the domain aggregation screens of Martell et al. (2025).

Experiment: soluble fraction after stress (log2 fold change); higher = more stays soluble; pooled small domains, quantitative proteomics
Conditions: stress: pH 4
Summary of the method: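 Custom libraries of small protein domains were pooled and measured with high-throughput quantitative proteomics after pH 4 stress. The read-out is the fold change in the amount of each domain that stays soluble after the acid stress, taken as a measure of aggregation propensity. Fold changes are on a log2 scale, and higher values mean more of the domain stayed soluble.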

Sequence | soluble fraction (log2)
HMIPPGTITIEGAITKVPVFLDGKQIGTVPLTKEDVEPGKYRIRVLGVGRVITIDPGEKENVLFSGEDLGL | -0.401
HMIPTDPNGDLIKILYTSDQINELYARAKLNDVEDLFLDWTKNVLGESNFEETGPTKNEYLIPQ | -0.961
HMIPTTELAERLGTTKVANMIMLGALIKASGIISFDDMIKNLGELLGEGKAKLIKLNKEALEVGFN | 0.0451
HMIPYSDLLKLLSNDAMPKFRNKDGWAKIHALETYLASRWSYQEYGFASFTVLLETVHNAEIRNDSVRLM | -0.0131
HMIQTMVVTDLKNGTIFKENGHPFIVLKYEHIKVSRGSAQVRVKMKNLITGQVLEKSWQSTAHVDDT | 0.186
HMIRMPNLIGLSVRSAEQQLVIAGLKKGIVHQVNDPRLKEVIDMQALGHKITAGSSIPKGTEVDLYIGNGT | 0.282
HMISAVDLMAARRKIEAGITNLQPGQAFTLPNKVGWVKRMTGGSYFIQGNGGYTASVRTISEAIQAAAMLL | -0.0224
HMISDQENDLNLKHLFDTADQNKDGLILESELKMLMTNLEINKETYDTVMKQITPAGMDYKTFSSL | -0.584
HMISFLNFVRKEIDASQLKDSTKQNHLTTIGLLQSFKPSIEFKDLNYNFITSFEKYLYDAGYQM | 0.105
HMISKQQRQALILDIIQKQSITSQEALLTELQRHHVMTTQTTVSRDIRALGIVRIKDVNGELSYQQLQ | -0.0545
HMISKRFQIDEDNSNKRIDIFLTQSLDSISRGIVQQLILENKVEVNGGPVKRNYLIKIGDVIDVKIDL | -0.608
HMISKTFEINEDNINNRLDIFLANQFDNLSRGIVQKLIESHSVSVSGNFVEKDYKLKLGDIIDVEINLS | -0.853
HMISLNEDQKLAILNEWNQRPDDPPFIKELIELVFPDIPEEAKTGRSRYGIAIKKFLAEKSLQAKV | -0.554
HMISLPSYIREEATEVYNRLHDLGLEYTSLDVNDDSIPKGYVVRTVPEAGASVPAGQVVTVYVSLG | -0.231
HMISQLRGKVLGTDRDALVIDVGGVGFRVSATAGARALAGQSGNEARLFTEMVVREDSIDLFGF | -0.245
HMISRKIKELRLSHDLTQKDLADYLNLTPKMVSFYELGQRVPPSDIILKLAEKFHVSTDYLLGNEDRP | -0.126
HMITDNEFLRIVSFLKQRYGIDMSQKKVIMNGRLENYLKSGGWSSFDEYMNDVEKDTSGDLEKTLVNFLTT | -0.853
HMITETIGANIKTLRDKFRMSQQDLASKMNTARPVISNWENGKTEPSSSQLLKLAKIFDTSTDKILGNV | 0.345
HMITKEDVANKKVNLLFFGNFHKMKLPDFEWGITEMMQDRDYLYGSLTKDLYFLGLVLDRKYKI | 0.124
HMITKENYLEKIKEIKVNEFPASMRELYDFFNEATRNGTDWSAYEEGNVKYVVDAYLERLNLLYKSN | -0.892
HMITLYIHNLEEVGKRLDHYLVSNLDDHSRSQIQSWIRSGSILVNDRSVKTGYSLELNDQILINPPK | -0.15
HMITNSTEIEAMIDSLIKENPEQAEQYRNGNTKVVGWFVGQMMKASKGKANPQVVGDLLAQKLVG | -0.821
HMIVAHEINRHLGESDQPVEIPDNRREGAVAELLKTFNNDDAFREMDDGKYEVALDGEKVREAARSLLA | -0.0196
HMIVDARNREINLGSHVRYVDTGTVGEVTDSKVENDASWVKIDKTNLWYLANKLELLNDEDFKT | -0.517
HMIVDINDVRIDKYIADNTDYSRNLILNLIKNGDILVNDSKIKPSYKVKQGDKITINNVKTD | -0.284
HMIVKQPDIRKQELLDIGVRLYFEAGEKGVSIQQVVKQAGVATGLFYYYFSSKDAFLDEALNDYID | -0.0638

Sequence | soluble fraction (log2)
HMIVLPGEELEVHIVQEGKEDGQGVAYLDDGTMVVVEGGRPYVDSFAYVAVTRVLQTGAGRIIFAHPTR | -0.108
HMIYNSGTTDSRGEAIVGGYLVTVTDTDTKDPVANAAVTLHKDNSISIRLPNSRLLDYADQTTVTVQLV | -0.00411
HMKAEKEIEKIKFTIYNEFKRKQEENHFLPPWDGTKMLRQFVLGVVANNPKYQHVNTDILYRDLLLLYYQ | -0.166
HMKAFTKKELQDLVLNIFRASPTTNYNYKQLYKLIRGKDPEIKTLIIAVLLGLEKNGSILQMRPGKYKFS | -0.268
HMKALDTVLSEIPGLGPVRIKQLLKVFGSVDAIRKASLQDLQQIEGIGPKLAQTIYEYFHQP | -0.328
HMKALYNLDYEKPLSGSYYTETTARAAVPTDIRKLGLIITYKTDATTNITEQFVGSSISAWTTSGNWKSLG | 0.105
HMKAPPLTDREKEILRWVAAGLQNKEIAHKLGISLATVRNHIHNILEKLDVHSKLEAVSLAFRQGWVS | -0.133
HMKASEMKKGQTIKIDGVLYVIVDFQHVKLSKGGAVYQTKLRNLAAGGIRDIRIRAEEVLEDA | -0.515
HMKDITPASEDQLKAITDLMLKVNGEWSDAFFTFISKKFNHQISSPEQLTTFEANTIIDMLRKKAEG | 0.22
HMKDLDSLSQEAKSVYAVFSDKPIHIDDIKRKTGLDFSKLFKAVTELELAELISSGEGKMYSL | -0.858
HMKDLTIRQQQFLNYIKDHLSLTGFPPTRSDIANEMGFKSPNAAEDHLRALARKGAIEIVPGTSRGIRLP | 0.0783
HMKDMKISTKNLLQELAKNYPDQTSFRKNVIETTARAMGYTGKDFYPLLTTDNRVKIGTYDLATFLRSI | -0.122
HMKDNPNETFERIAGKITRTLRSGPVRIQQLDLLFSESAGKVVDVLRAMAENGEVLIKDDTIQLNGNN | -0.261
HMKDTFHNLSEEKRERIIRAALGEFAASGYEKATLDGVVQAAGISKGGLYEYISSKEDLFRYLLEYSYD | -1.43
HMKDTNENLMKMLALLIHAAKIDENYSDEEKELIVNFAEMSSKENLNREQILSIIKSAEEYE | -0.673
HMKEADVRKNEILDAAGILFSEKGYDNTSVTDIMNAVGFAKGTLYHHFKSKEDIMDALIKRQTD | -0.61
HMKEAISIYPNPVKDILTIRGMDETSGVSFKLYDVTGNLLLESTHSELDMSGLNRGVYFLDIAGDVRKVVK | -1.07
HMKEEDLPREYTDILGNSVHERLNIMIHDIIEHSQDKPEVAMSPEREEAMHGLRRWMFDHVYH | -0.307
HMKEEVEILGGKATIYTNDYGVWQFRLWLTTDNKYVRKSLRTKVKDYAITEGEKLYIQIRSDIEKGIKYY | -0.077
HMKEEVSVPDIKGMTYEEAEAKLAKYDLEIEKGETVKASEQYEEGQISSQEPEAGSKVKEGSTIVVDVVE | -0.174
HMKEFSFNGGKVIMNYEADRIQIKHDSRPNQEVITLMKRNGFKWSPTNQAWQRQITGNAIYVTKNLLKS | -0.0347
HMKEGGGYGQLRLKEAAIQHAFDLQNALQFIAERGYQAHENTTLKEAANALNLKPIELLELLKSSQ | -0.574
HMKEIDVPNVVGASENAARKLLESYGFQVEVQWENGERVDNAVVKSYSPNGSAKSGSTVTIVLGT | -0.293
HMKEINFTIEESAKGRLDKVIAENVADLTRSQVQSLIKKGQILVNDAPTTNRYQVKPNDQVIIKLPDPV | 0.0442
HMKEKLGEFENVFLSVDELQKLKSKLGAETESYIERLSNYIASSGKKYKSHYATILSWTQKDTK | -0.644
HMKELASKYEISEYMKFLIENLDKSNFFYPIEKRESMINNIFSIYSKADLSKKELNMLWGMLKKLR | -1.06

Sequence | soluble fraction (log2)
HMKELTELIEKIKLRRLELGLSYQELSDLTGINKSTLQRYETGFIKKVPINQVQIIAKALNVTPGYLMG | -0.718
HMKEMTAKQIDMFSDKLSKLESFQSHYIADAGVSVTEYKQAIAAKLQDQFYVEAWGKYLADVGFT | -1.13
HMKEPIYQTILSALILELNTNHFRKNDPFYSESELRKKYQVSSTTVVRVLNMLADQGYIYRIQGKGSFVSK | -0.5
HMKESFAQLFSLLTPTEQKVAALISQGFSNKDIAAKMFISLSTVKTHTNHIFAKMGVANRNALVAKVNN | -0.0677
HMKESRFDYDAVLLYSDKDSITEVKDAVQHLTKEFGSVFTTKKIPEKATFGKLFRIEKGEVNIIEDN | -1.22
HMKESRLFRILYYLLQHKKATAPELAEEFEVSVRTIYRDIDYISSAGVPIYATQGKDGGIAILDSF | -0.81
HMKETLSINSTDFEVRRSSRRKRISVGFDTGTETFFIAAPTKLAGTDILRILGPQISRLMDRLT | -0.808
HMKEVDERPWGKYEVLLDAPDVKVKRITVNPGQRLSYQYHEKRAEVWTVVSGILTIILEDDKLFRG | 0.0694
HMKFIPPSLEEARAYFVEKGSSEPEAEKFVNHFDSIGWKVGRARTPMKKWKSAANNWIANNREWNQ | -0.166
HMKFKDYYAALGIDRNADLEQIKKAYRKLARQYHPDVSKAPDAEARFKDAAEAYATLKNPEKRAAYDELGS | 0.22
HMKFLHLADLHLGKRVNGFSMLEDQAYILRQILTILDDERPDGVLIAGDVYDKPVPPTEAVELLD | -0.632
HMKFLYQKAREEIISLIQDGEIKPSEKIMPERELSELLGYNRMTIKKAINSLVAEGVLMKKRGAGTFLLG | -0.45
HMKFLYQQVYQDIKDKITSAQYQFGDLLPSEREIGEEYHVDRTTVRKAFSLLVDEGLVEKRAGKGSVVIS | -0.52
HMKFTELEQLMLKREINTLADIARVLKTTPQAVSNWKARDQIPYHIVAKINASINKDSNDSSLSI | -0.782
HMKFTSEKDISLLELVKAKMGFVSNTKARNVIKIGQIMVSGKVIKIPSTLIKPGTEVELARRV | 0.32
HMKFYKMIDESDEKIENPEIMIFQIIELVSSTTYSAIINKEPVDVETLKPYLYQTIRTIIINHQS | -0.582
HMKGEKVTKIELSNFIKFLINDLENKGFFNPPEKKDSMIDNIYSIYNKMTLTKKELNMLWGMHKKLK | -0.676
HMKGERHNKILELIQQHAIDRQEDLLRYLKEAGFQVTQATVSRDIRELHLVKVAAGGGQYRYVSAAAAS | -0.255
HMKGIHDYITKDGLRVVKVHYSADPDKDVTTVEGKKWMAKALLGYPGGLEGAKWRREMEIDFNA | -0.258
HMKGILVPASSIISDGDKNYVWTVEKGKAKKVEVTLGNADAENQEISSGLTKDSKVITNPTDSLKDGQEV | 0.269
HMKGKDLQDAVVTVVGGAENWNAIRAWAQASASDSEKREINAAFQSGKLMATMMAERLALAYQQSG | 0.0105
HMKGKITTNWVSLTSDLGWLRSELYSSGSVLEERISNEGLIELHLENFQNDLIKLLEVEGFDLIKE | -1.73
HMKGQLVVFPNPASSNDMVRFNKNISFSIFDITGHLVDTKRNVNELSVGNLEAGTYILRTEQGDVLRMVI | -0.904
HMKGRPTTAIITDERTNLRSGPGATNKTIAQAGAGEKLAIIDEKDGWYQVSRAGINGWVAGWVIDVAW | -0.945
